Experimental data reported in article PMC4821239, “Molecular architecture of the Dam1 complex–microtubule interaction” (Open Biology, 2016).

B2: Dad4 (natural protein, budding yeast, UniProt P69851 1-72, looked up)
chain: MENPHEQVQANILSRIIGNVKRLNESVAILNQELVTINNRNKNLEIMGAICDNYHSSVQFNLEATNNKKPPL
notes: Dad4, subunit of the budding yeast Dam1 complex; Subunit inside the recombinant 10-subunit complex; source: expressed and purified as part of the Dam1 complex as described [3]

Assays:
Dam1 = molecular target: T1, Dam1 (budding yeast, UniProt P53267 1-343); assay: cross-linking; BS3, Dam1 complex at 0.3 mg/ml in BRB80, room temperature 40-60 min, digested in solution, mass spectrometry; some links may be between oligomerizing complexes; details: both partners purified
T1 construct: Dam1, subunit of the budding yeast Dam1 complex; Subunit inside the recombinant 10-subunit complex; also called Dam1 subunit; source: expressed and purified as part of the Dam1 complex as described [3]
T1 sequence (looked up): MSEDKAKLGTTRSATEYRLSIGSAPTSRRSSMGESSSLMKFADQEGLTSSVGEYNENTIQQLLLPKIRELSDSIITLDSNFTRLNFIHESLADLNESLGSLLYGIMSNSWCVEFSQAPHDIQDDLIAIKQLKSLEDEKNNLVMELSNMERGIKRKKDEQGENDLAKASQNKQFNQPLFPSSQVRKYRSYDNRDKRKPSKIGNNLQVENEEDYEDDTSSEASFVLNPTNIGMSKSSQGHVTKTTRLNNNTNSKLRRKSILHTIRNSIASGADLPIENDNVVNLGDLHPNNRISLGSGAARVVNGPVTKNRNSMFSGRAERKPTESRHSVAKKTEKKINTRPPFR

Dad2 [1] = molecular target: T2, Dad2 (budding yeast, UniProt P36162 1-133); assay: affinity purification with mass spectrometry; mutant Dam1 complexes purified by the His tag on Hsk3 (Ni-NTA), then Superose 6 size-exclusion chromatography; proteins identified by mass spectrometry; details: partners not purified
T2 construct: Dad2, subunit of the budding yeast Dam1 complex; Subunit inside the recombinant 10-subunit complex; source: expressed and purified as part of the Dam1 complex as described [3]
T2 sequence (looked up): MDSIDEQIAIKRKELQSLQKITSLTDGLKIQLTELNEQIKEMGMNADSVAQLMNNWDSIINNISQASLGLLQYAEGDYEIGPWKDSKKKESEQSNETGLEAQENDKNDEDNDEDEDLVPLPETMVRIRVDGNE

Dad4 = molecular target: B2; assay: as above; details: partners not purified
Spc34 = molecular target: T3, Spc34 (budding yeast, UniProt P36131 1-295); assay: cross-linking; BS3, Dam1 complex at 0.3 mg/ml in BRB80, room temperature 40-60 min, digested in solution, mass spectrometry; some links may be between oligomerizing complexes; details: both partners purified
T3 construct: Spc34, subunit of the budding yeast Dam1 complex; Subunit inside the recombinant 10-subunit complex; source: expressed and purified as part of the Dam1 complex as described [3]
T3 sequence (looked up): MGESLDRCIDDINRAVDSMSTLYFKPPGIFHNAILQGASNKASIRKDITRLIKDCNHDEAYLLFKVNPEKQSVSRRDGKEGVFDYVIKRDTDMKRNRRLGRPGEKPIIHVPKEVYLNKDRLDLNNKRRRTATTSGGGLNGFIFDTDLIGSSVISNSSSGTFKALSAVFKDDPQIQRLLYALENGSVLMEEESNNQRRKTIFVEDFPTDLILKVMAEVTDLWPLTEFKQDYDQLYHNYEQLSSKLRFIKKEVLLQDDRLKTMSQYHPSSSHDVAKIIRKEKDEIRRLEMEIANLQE

Spc19 = molecular target: T4, Spc19 (budding yeast, UniProt Q03954 1-165); assay: as above; details: both partners purified
T4 construct: Spc19, subunit of the budding yeast Dam1 complex; Subunit inside the recombinant 10-subunit complex; also called Sp19; source: expressed and purified as part of the Dam1 complex as described [3]
T4 sequence (looked up): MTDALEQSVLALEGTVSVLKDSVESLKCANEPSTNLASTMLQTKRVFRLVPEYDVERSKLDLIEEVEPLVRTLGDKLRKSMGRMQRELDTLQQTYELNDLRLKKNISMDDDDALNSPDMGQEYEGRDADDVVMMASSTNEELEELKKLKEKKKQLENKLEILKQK

Ask1 = molecular target: T5, Ask1 (budding yeast, UniProt P35734 1-292); assay: cross-linking; EDC with Sulfo-NHS, Dam1 complex assembled on taxol-stabilized microtubules in BRB80, pellet washed, room temperature 1 h, digested in solution, mass spectrometry; details: both partners purified
T5 construct: Ask1, subunit of the budding yeast Dam1 complex; Subunit inside the recombinant 10-subunit complex; source: expressed and purified as part of the Dam1 complex as described [3]
T5 sequence (looked up): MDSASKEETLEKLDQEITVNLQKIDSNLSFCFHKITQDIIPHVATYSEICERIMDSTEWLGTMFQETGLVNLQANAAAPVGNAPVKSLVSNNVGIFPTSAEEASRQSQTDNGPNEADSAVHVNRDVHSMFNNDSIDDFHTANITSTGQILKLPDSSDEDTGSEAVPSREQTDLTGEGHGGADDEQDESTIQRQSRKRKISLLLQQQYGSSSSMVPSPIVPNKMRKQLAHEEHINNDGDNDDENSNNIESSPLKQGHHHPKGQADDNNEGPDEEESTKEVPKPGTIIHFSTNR

Dad2 [2] = molecular target: T2, Dad2; assay: cross-linking; BS3, Dam1 complex at 0.05 mg/ml in solution; cross-linked species (approx. 110, 220 and 440 kDa) separated by SDS-PAGE, bands cut out, in-gel trypsin digestion, mass spectrometry; details: both partners purified

Measured: binding result

B1: Hsk3 (natural protein, budding yeast, UniProt P69852 1-69, looked up)
chain: MNANKQRQYNQLAHELRELQTNLQETTKQLDIMSKQCNENLVGQLGKVHGSWLIGSYIYYMEQMLGKTQ
notes: Hsk3, subunit of the budding yeast Dam1 complex; Subunit inside the recombinant 10-subunit complex; also called his-tagged Hsk3; source: expressed and purified as part of the Dam1 complex as described [3]; mutant complexes by Ni-NTA and Superose 6
binds: Dam1 | Dad2 [1] | Dad4

B2
binds: Dam1 | Spc34 | Spc19 | Ask1 | Dad2 [2]
